Experimental data reported in PMC5473146.

Legend:
Dbp2 = Dbp2 (Saccharomyces cerevisiae, UniProt P24783 1-546); experiment: fluorescence anisotropy
MBP-DDX5-GST = MBP-DDX5-GST (Homo sapiens, UniProt P17844 1-614); experiment: fluorescence anisotropy
Chain of MBP-DDX5-GST (P17844 whole entry): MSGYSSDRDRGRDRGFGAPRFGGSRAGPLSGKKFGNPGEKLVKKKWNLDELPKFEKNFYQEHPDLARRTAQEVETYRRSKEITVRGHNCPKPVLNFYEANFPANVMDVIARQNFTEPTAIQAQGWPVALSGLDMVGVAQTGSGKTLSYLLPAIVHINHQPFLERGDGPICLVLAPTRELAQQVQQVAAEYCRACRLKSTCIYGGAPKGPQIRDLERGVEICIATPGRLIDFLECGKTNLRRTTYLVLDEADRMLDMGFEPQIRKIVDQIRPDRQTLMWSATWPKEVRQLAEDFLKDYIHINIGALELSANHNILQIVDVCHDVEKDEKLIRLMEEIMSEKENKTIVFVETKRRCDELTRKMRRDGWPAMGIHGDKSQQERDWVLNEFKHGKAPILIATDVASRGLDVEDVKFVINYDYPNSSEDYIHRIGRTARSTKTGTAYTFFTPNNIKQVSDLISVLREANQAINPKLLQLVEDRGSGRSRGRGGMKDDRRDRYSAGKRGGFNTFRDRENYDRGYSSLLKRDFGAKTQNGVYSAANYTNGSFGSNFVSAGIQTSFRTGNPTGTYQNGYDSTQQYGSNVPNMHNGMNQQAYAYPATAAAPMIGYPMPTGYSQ

Chain of Dbp2 (P24783 whole entry): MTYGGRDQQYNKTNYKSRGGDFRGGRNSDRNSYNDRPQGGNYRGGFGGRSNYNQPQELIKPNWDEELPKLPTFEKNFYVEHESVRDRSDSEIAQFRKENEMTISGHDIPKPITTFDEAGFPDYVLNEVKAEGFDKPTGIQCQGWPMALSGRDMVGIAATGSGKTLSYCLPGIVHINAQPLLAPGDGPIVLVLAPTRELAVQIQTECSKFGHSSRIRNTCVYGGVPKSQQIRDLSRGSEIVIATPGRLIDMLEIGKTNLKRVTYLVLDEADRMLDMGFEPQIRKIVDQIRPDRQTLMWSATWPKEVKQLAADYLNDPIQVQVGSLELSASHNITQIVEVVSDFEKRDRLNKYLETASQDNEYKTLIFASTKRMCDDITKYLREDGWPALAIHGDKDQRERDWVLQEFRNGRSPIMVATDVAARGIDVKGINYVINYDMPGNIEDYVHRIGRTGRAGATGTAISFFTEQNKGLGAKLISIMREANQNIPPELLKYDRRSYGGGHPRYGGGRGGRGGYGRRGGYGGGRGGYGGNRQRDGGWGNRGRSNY

## AGCACCGUAAAGACGC (ssRNA) [16-nt ssRNA (6-FAM)]
Dbp2
  binding signal: ~4 fold weaker than MBP-DDX5-GST
MBP-DDX5-GST
  binding signal: ~4 fold tighter than Dbp2
